The source of these data is paper PMC9364601.

The target in assay [1] is microtubules polymerized from tubulin purified from goat brain, Taxol-stabilised (goat). Description: single-molecule motility assay (TIRF); Taxol-stabilised MTs adsorbed on the coverslip, purified fluorescent motors in the motility mix; P12 buffer pH 6.8, BSA, 2 mM ATP, room temperature; run time and detachment rate computed from run length and velocity.
Assay [2] has the same target.
For assay [3] the target is unchanged. The source holds these as a separate data set.

In assay [1], “KIF16B(1–400)-mCit-Flag (from UniProt Q96L93 1-400) (domain or fragment)” yielded a detachment rate from the MT (koff) of 0.1 s⁻¹ and a mean run time (average time spent on the MT) of 9.83 s. The Km for microtubules of the MT-stimulated ATPase (Michaelis-Menten fit; 10 nM motor, 1-80 µM MTs, BRB80, room temperature) in assay [2] turned out to be 2.43 µM.

On to “KIF1A(1-393LZ)-mCit-Flag (from UniProt F1M4A4 1-393) (domain or fragment)”, for which, in assay [1], the detachment rate from the MT (koff) was 0.23 s⁻¹ and the mean run time (average time spent on the MT) was determined as 4.38 s. In addition, the Km for microtubules of the MT-stimulated ATPase (Michaelis-Menten fit; 10 nM motor, 1-80 µM MTs, BRB80, room temperature) in assay [2] is 7.03 µM.

“KIF1A R167C mutant motor, purified (domain or fragment)”: the microtubule affinity from the enzyme kinetics of the MT-stimulated ATPase, decrease compared to wild-type motors (times (decrease against wild type)) in assay [3] was found to be 1.5.

As to “KHC(1–560)-mCit-Flag (from UniProt P56536 1-560) (domain or fragment)”, in assay [1], the detachment rate from the MT (koff) was found to be 0.72 s⁻¹ and the mean run time (average time spent on the MT) came to 1.39 s. In assay [2], the Km for microtubules of the MT-stimulated ATPase (Michaelis-Menten fit; 10 nM motor, 1-80 µM MTs, BRB80, room temperature) amounted to 10.2 µM.

B1: KIF13B(1-412ΔP391)-mCit-Flag (domain or fragment)
chain: MGDSKVKVAVRIRPMNRRETDLHTKCVVDVDANKVILNPVNTNLSKGDARGQPKVFAYDHCFWSMDESVKEKYAGQDIVFKCLGENILQNAFDGYNACIFAYGQTGSGKSYTMMGTADQPGLIPRLCSGLFERTQKEENEEQSFKVEVSYMEIYNEKVRDLLDPKGSRQTLKVREHSVLGPYVDGLSKLAVTSYKDIESLMSEGNKSRTVAATNMNEESSRSHAVFKITLTHTLYDVKSGTSGEKVGKLSLVDLAGSERATKTGAAGDRLKEGSNINKSLTTLGLVISALADQSAGKNKNKFVPYRDSVLTWLLKDSLGGNSKTAMVATVSPAADNYDETLSTLRYADRAKHIVNHAVVNEDPNARIIRDLREEVEKLREQLTKAEAMKSELKDRLEESEKLIQEMTVTWE
With B1, in assay [1], the detachment rate from the MT (koff) came to 0.12 s⁻¹ and the mean run time (average time spent on the MT) is 8.06 s. In addition, the Km for microtubules of the MT-stimulated ATPase (Michaelis-Menten fit; 10 nM motor, 1-80 µM MTs, BRB80, room temperature) in assay [2] turned out to be 4.23 µM.

B2: KIF13A(1-411ΔP390)-mCit-Flag (domain or fragment)
chain: MSDTKVKVAVRVRPMNRRELELNTKCVVEMEGNQTVLHPPPSNTKQGERKPPKVFAFDYCFWSMDESNTTKYAGQEVVFKCLGEGILEKAFQGYNACIFAYGQTGSGKSFSMMGHAEQLGLIPRLCCALFKRISLEQNESQTFKVEVSYMEIYNEKVRDLLDPKGSRQSLKVREHKVLGPYVDGLSQLAVTSFEDIESLMSEGNKSRTVAATNMNEESSRSHAVFNIIITQTLYDLQSGNSGEKVSKVSLVDLAGSERVSKTGAAGERLKEGSNINKSLTTLGLVISSLADQAAGKGKSKFVPYRDSVLTWLLKDNLGGNSQTSMIATISPAADNYEETLSTLRYADRAKRIVNHAVVNEDPNAKVIRELREEVEKLREQLSQAEAMKAELKEKLEESEKLIKELTVTWE
On to B2, for which, in assay [1], the detachment rate from the MT (koff) was 0.15 s⁻¹ and the mean run time (average time spent on the MT) stood at 6.61 s. Moreover, the Km for microtubules of the MT-stimulated ATPase (Michaelis-Menten fit; 10 nM motor, 1-80 µM MTs, BRB80, room temperature) in assay [2] came out at 5.16 µM.
